Reference: patent US20240000957A1 (published 2024)

T1: Rat EphA3 Fc fusion (Rat, UniProt O08680 21-541)
T1 construct: Bought Fc fusion; also called Sino Biologics 80465-R02H; not shown: Fc of the bought fusion
T1 sequence (looked up): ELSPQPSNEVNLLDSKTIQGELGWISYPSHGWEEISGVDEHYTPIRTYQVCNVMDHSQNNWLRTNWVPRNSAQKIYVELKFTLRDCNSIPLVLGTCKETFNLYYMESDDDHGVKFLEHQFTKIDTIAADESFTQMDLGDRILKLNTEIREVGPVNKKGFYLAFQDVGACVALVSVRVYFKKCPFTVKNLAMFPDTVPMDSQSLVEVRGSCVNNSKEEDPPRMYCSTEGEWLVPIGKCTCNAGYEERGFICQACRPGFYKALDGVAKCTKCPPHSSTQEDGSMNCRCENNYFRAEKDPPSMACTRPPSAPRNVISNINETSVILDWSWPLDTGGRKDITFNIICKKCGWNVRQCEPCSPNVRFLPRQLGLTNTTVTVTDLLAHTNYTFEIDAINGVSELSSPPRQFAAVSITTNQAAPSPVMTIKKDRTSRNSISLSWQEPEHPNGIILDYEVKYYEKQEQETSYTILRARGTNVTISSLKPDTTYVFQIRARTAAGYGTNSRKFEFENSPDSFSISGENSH

B1: BCY6033 (peptide)
peptide: AXDCPLVNPLCLHPGWTC
modifications: not fully specified; N-terminal (β-Ala)-Sar10 spacer precedes SEQ ID NO: 11; HArg (homoarginine) at residue 2 of SEQ ID NO: 11; three Cys cyclised on the TATA scaffold; ValCit-MMAE (MMAE-PABC-Cit-Val-glutarate) on the N-terminal amine
B2: BCY6082 (peptide)
peptide: AXDCPLVNPLCLHPGWTC
modifications: not fully specified; N-terminal (β-Ala)-Sar10 spacer precedes SEQ ID NO: 11; HArg (homoarginine) at residue 2 of SEQ ID NO: 11; three Cys cyclised on the TATA scaffold; DM1-SS(SO3H)- (DM1-SO3H-SPDB) on the N-terminal amine

Experiments:
Human EphA2 = target: T2, Human EphA2 (Human, UniProt P29317 24-537, limits assumed, biotinylated, 0.95 mol biotin/monomer); assay: SPR, biotinylated EphA2 on streptavidin chip
T2 construct: also called Eph receptor tyrosine kinase A2

Rat EphA2 = Rat EphA2 (Rat, UniProt D3ZBN3 23-538, biotinylated, 1.4 mol biotin/monomer); assay: SPR, biotinylated EphA2 on streptavidin chip
Mouse EphA2 Fc fusion = target: T3, Mouse EphA2 Fc fusion (Mouse, UniProt Q03145 26-535, limits assumed); assay: SPR, Fc-tagged EphA2 captured by anti-human IgG
T3 construct: Bought Fc fusion; also called R&D Systems 639-A2; not shown: Fc of the bought fusion

Rat EphA3 Fc fusion = target: T1, Rat EphA3 Fc fusion; assay: SPR, Fc-tagged protein captured by anti-human IgG

T2 sequence (P29317 24-537 limits assumed): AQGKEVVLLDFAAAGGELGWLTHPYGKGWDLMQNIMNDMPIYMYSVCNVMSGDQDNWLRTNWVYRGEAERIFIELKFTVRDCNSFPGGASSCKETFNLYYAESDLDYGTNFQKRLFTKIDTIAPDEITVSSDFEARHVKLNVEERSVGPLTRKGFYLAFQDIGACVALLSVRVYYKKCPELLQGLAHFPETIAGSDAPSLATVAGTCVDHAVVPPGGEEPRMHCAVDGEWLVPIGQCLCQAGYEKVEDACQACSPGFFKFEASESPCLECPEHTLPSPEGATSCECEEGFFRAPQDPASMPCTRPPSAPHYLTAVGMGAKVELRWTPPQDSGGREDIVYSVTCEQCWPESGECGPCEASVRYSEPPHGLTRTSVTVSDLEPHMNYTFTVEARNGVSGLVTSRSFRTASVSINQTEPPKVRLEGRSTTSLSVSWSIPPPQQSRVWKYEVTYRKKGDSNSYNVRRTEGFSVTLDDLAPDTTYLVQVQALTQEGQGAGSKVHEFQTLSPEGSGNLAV
T3 sequence (Q03145 26-535 limits assumed): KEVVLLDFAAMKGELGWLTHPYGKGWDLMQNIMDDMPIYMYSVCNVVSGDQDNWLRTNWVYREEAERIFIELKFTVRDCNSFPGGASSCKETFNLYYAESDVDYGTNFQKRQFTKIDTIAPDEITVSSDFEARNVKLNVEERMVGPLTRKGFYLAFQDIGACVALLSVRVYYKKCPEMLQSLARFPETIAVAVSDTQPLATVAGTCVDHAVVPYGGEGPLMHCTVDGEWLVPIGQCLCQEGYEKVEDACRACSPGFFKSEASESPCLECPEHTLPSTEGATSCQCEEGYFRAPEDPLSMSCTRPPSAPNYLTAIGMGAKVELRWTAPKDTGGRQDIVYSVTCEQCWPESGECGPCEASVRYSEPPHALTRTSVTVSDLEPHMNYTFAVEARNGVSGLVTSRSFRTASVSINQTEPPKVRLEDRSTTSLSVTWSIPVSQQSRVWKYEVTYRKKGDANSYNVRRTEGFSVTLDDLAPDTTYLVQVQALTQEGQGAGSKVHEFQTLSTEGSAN

Row | Binder | Kd (Human EphA2) [nM] | t1/2 (Human EphA2) [min] | Kd (Rat EphA2) [nM] | t1/2 (Rat EphA2) [min] | Kd (Mouse EphA2 Fc fusion) [nM] | t1/2 (Mouse EphA2 Fc fusion) [min] | binding result (Rat EphA3 Fc fusion)
1 | B1 | 3.41 | 3.5 | 166 | 2.6 | 21.8 | 1.8 | no binding (tested: 20 µM)
2 | B2 | 2.42 | 4.8 | 28.8 | 3.2 | 18.3 | 1.9 | no binding (tested: 20 µM)
